Patent publication US9803013B2, “Biological materials and uses thereof” (BioInvent International AB, priority 2005, dated 2017)

Legend:
[1] = test system: LS174 T colorectal carcinoma; experiment: IgG binding to tumour cell line, flow cytometry; set-up: species or system human; conditions: compared to the prostate cancer cells
Text: (§1) FIG. 6—Binding of B1, B11, C11 IgG, to tumour cell lines of different origin. The antigen distribution of antigens targeted by the B1, B11, and C11 antibodies on different carcinoma cell lines was investigated by flow-cytometry.
(§2) The antigen distribution of human antibody targeted antigens, mainly for B11, on different carcinoma cell lines was investigated. Cells (MCF-7 and MDA MB 435S breast carcinoma, JAR and JEG-3 chorio-carcinoma, A549 lung carcinoma, TCC-SUP urinary bladder carcinoma, MDA MB 435 melanoma, HPAC, PANC-1 and BxPC-3 pancreatic carcinoma, PC-3 and DU145 prostate carcinoma, LS174 T, CaCo2, and Lovo colorectal carcinoma, and THP-1 monocytic leukaemia cells), were washed in PBS, and resuspended at 4×10^6 cells/ml in Complete Medium (200,000 cells/50 […] sample). […] Cells were incubated with either of the antibodies for 1 hour on ice, washed by resuspension in PBS/BSA 0.5%, centrifuged at 1200 rpm for 5 min, and complete aspiration of the supernatants was undertaken. Cells were incubated with PE-conjugated Goat F(ab′)2 anti-Human IgG (Caltag Laboratories, Cat no: H10104), diluted 1/50 in PBS/BSA 0.5%, for 30 min, on ice. Following resuspension of in 300 μl PBS/BSA 0.5%, cells were analysed for IgG binding using a FACScan instrument.

[2] = test system: HPAC pancreatic carcinoma; experiment: IgG binding to tumour cell line, flow cytometry; set-up: species or system human; conditions: compared to the prostate cancer cells
Text: as §1, §2

B1: B11: fully human IgG1 antibody specific for ICAM-1; VH and VL sequences of FIG. 10 (SEQ ID NOs. 6 and 8) (antibody, listed as Homo sapiens, V domains shown)
VH: EVQLLESGGGLVQPGGSLRLSCAASGFTFSNAWMSWVRQAPGKGLEWVAFIWYDGSNKYYADSVKGRFTISRDNSKNTLYLQMNSLRAEDTAVYYCARYSGWYFDYWGQGTLVTVSS
VL: QSVLTQPPSASGTPGQRVTISCTGSSSNIGAGYDVHWYQQLPGTAPKLLIYDNNNRPSGVPDRFSGSKSGTSASLAISGLRSEDEADYYCQSYDSSLSAWLFGGGTKLTVLG
binding / ICAM-1 expression [1]: lower intensity | binding / ICAM-1 expression [2]: lower intensity
